Reference: the RNAGym collection of RNA variant scans (doi:10.7554/elife.80360)

B1: Hammerhead Ribozyme (parent)
chain: ACCGGAUGUGCUUUCCGGUCUGAUGAGUCCGUGAGGACGAAACAG

Variants of: B1
Assay: self-cleavage, relative activity (ratio to wild type); higher = more cleavage; co-transcriptional

First: U28C G45U
Second: U28C U32A
The self-cleavage of the first is lower: 0.727 for the first, 0.984 for the second.

Going from U28C U32C to U28C U32G, the self-cleavage falls from 1 to 0.556.

Going from U28G to U28G A34C, the self-cleavage falls from 0.873 to 0.411.

Compared with U28G A34G, U28G A34U is lower in self-cleavage: 0.793 for the first, 0.475 for the second.

Going from U28G A37C to U28G A37G, the self-cleavage falls from 0.919 to 0.45.

Compared with U28G A37U, U28G A40C is lower in self-cleavage: 0.843 for the first, 0.383 for the second.

Going from U28G A40G to U28G A40U, the self-cleavage rises from 0.261 to 0.323.

Going from U28G A41C to U28G A41G, the self-cleavage rises from 0.348 to 0.421.

Compared with U28G A41U, U28G A42C is lower in self-cleavage: 0.338 for the first, 0.24 for the second.

Compared with U28G A42G, U28G A42U is higher in self-cleavage: 0.264 for the first, 0.311 for the second.

Going from U28G A44C to U28G A44G, the self-cleavage rises from 0.371 to 0.673.

Going from U28G A44U to U28G C29A, the self-cleavage rises from 0.397 to 0.878.

First: U28G C29G
Second: U28G C29U
The self-cleavage of the first is lower: 0.547 for the first, 0.77 for the second.

Compared with U28G C30A, U28G C30G is lower in self-cleavage: 0.408 for the first, 0.315 for the second.

First: U28G C30U
Second: U28G C38A
The self-cleavage of the first is higher: 0.83 for the first, 0.64 for the second.

Compared with U28G C38G, U28G C38U is higher in self-cleavage: 0.542 for the first, 0.858 for the second.

Going from U28G C43A to U28G C43G, the self-cleavage falls from 0.323 to 0.274.

Going from U28G C43U to U28G G31A, the self-cleavage rises from 0.3 to 0.85.

Compared with U28G G31C, U28G G31U is lower in self-cleavage: 0.987 for the first, 0.932 for the second.

First: U28G G33A
Second: U28G G33C
The self-cleavage of the first is lower: 1.02 for the first, 1.2 for the second.

First: U28G G33U
Second: U28G G35A
The self-cleavage of the first is higher: 0.972 for the first, 0.384 for the second.

Compared with U28G G35C, U28G G35U is higher in self-cleavage: 0.562 for the first, 0.58 for the second.

Going from U28G G36A to U28G G36C, the self-cleavage falls from 0.573 to 0.317.

First: U28G G36U
Second: U28G G39A
The self-cleavage of the first is lower: 0.35 for the first, 0.411 for the second.

Compared with U28G G39C, U28G G39U is lower in self-cleavage: 0.323 for the first, 0.32 for the second.

Compared with U28G G45A, U28G G45C is lower in self-cleavage: 0.418 for the first, 0.412 for the second.

Compared with U28G G45U, U28G U32A is higher in self-cleavage: 0.527 for the first, 0.83 for the second.

Compared with U28G U32C, U28G U32G is lower in self-cleavage: 0.664 for the first, 0.449 for the second.

Compared with C29A, C29A A34C is lower in self-cleavage: 0.708 for the first, 0.494 for the second.

Compared with C29A A34G, C29A A34U is higher in self-cleavage: 0.518 for the first, 0.563 for the second.

First: C29A A37C
Second: C29A A37G
The self-cleavage of the first is higher: 0.755 for the first, 0.692 for the second.

Compared with C29A A37U, C29A A40C is lower in self-cleavage: 0.703 for the first, 0.354 for the second.

First: C29A A40G
Second: C29A A40U
The self-cleavage of the first is lower: 0.294 for the first, 0.314 for the second.

Going from C29A A41C to C29A A41G, the self-cleavage falls from 0.355 to 0.339.

Going from C29A A41U to C29A A42C, the self-cleavage rises from 0.301 to 0.304.

First: C29A A42G
Second: C29A A42U
The self-cleavage of the first is lower: 0.265 for the first, 0.374 for the second.

Compared with C29A A44C, C29A A44G is higher in self-cleavage: 0.323 for the first, 0.765 for the second.

Going from C29A A44U to C29A C30A, the self-cleavage rises from 0.407 to 0.442.

Compared with C29A C30G, C29A C30U is higher in self-cleavage: 0.372 for the first, 0.41 for the second.

Compared with C29A C38A, C29A C38G is lower in self-cleavage: 0.426 for the first, 0.281 for the second.

Compared with C29A C38U, C29A C43A is lower in self-cleavage: 0.652 for the first, 0.345 for the second.

Going from C29A C43G to C29A C43U, the self-cleavage rises from 0.348 to 0.396.

Compared with C29A G31A, C29A G31C is higher in self-cleavage: 0.606 for the first, 0.683 for the second.

Compared with C29A G31U, C29A G33A is higher in self-cleavage: 0.611 for the first, 0.816 for the second.

First: C29A G33C
Second: C29A G33U
The self-cleavage of the first is lower: 0.442 for the first, 0.674 for the second.

First: C29A G35A
Second: C29A G35C
The self-cleavage of the first is higher: 0.618 for the first, 0.526 for the second.

Compared with C29A G35U, C29A G36A is lower in self-cleavage: 0.727 for the first, 0.665 for the second.

Going from C29A G36C to C29A G36U, the self-cleavage falls from 0.718 to 0.624.

Going from C29A G39A to C29A G39C, the self-cleavage falls from 0.356 to 0.326.

First: C29A G39U
Second: C29A G45A
The self-cleavage of the first is higher: 0.387 for the first, 0.372 for the second.

First: C29A G45C
Second: C29A G45U
The self-cleavage of the first is higher: 0.388 for the first, 0.35 for the second.

First: C29A U32A
Second: C29A U32C
The self-cleavage of the first is lower: 0.643 for the first, 0.866 for the second.

First: C29A U32G
Second: C29G
The self-cleavage of the first is lower: 0.504 for the first, 0.766 for the second.

First: C29G A34C
Second: C29G A34G
The self-cleavage of the first is higher: 0.56 for the first, 0.446 for the second.

Going from C29G A34U to C29G A37C, the self-cleavage rises from 0.748 to 0.759.

Going from C29G A37G to C29G A37U, the self-cleavage rises from 0.414 to 0.587.

First: C29G A40C
Second: C29G A40G
The self-cleavage of the first is higher: 0.288 for the first, 0.238 for the second.

First: C29G A40U
Second: C29G A41C
The self-cleavage of the first is higher: 0.325 for the first, 0.269 for the second.

Compared with C29G A41G, C29G A41U is lower in self-cleavage: 0.338 for the first, 0.29 for the second.

Going from C29G A42C to C29G A42G, the self-cleavage falls from 0.407 to 0.269.

Going from C29G A42U to C29G A44C, the self-cleavage falls from 0.394 to 0.35.

First: C29G A44G
Second: C29G A44U
The self-cleavage of the first is higher: 0.82 for the first, 0.398 for the second.

Compared with C29G C30A, C29G C30G is higher in self-cleavage: 0.432 for the first, 0.476 for the second.

First: C29G C30U
Second: C29G C38A
The self-cleavage of the first is higher: 0.693 for the first, 0.458 for the second.

Compared with C29G C38G, C29G C38U is higher in self-cleavage: 0.424 for the first, 0.703 for the second.

Compared with C29G C43A, C29G C43G is lower in self-cleavage: 0.376 for the first, 0.275 for the second.

Compared with C29G C43U, C29G G31A is higher in self-cleavage: 0.328 for the first, 1.01 for the second.

First: C29G G31C
Second: C29G G31U
The self-cleavage of the first is lower: 0.74 for the first, 0.777 for the second.

Going from C29G G33A to C29G G33C, the self-cleavage falls from 0.788 to 0.654.

Compared with C29G G33U, C29G G35A is lower in self-cleavage: 0.664 for the first, 0.637 for the second.

Going from C29G G35C to C29G G35U, the self-cleavage rises from 0.602 to 0.665.

Compared with C29G G36A, C29G G36C is higher in self-cleavage: 0.66 for the first, 0.799 for the second.

Going from C29G G36U to C29G G39A, the self-cleavage falls from 1.01 to 0.324.

Compared with C29G G39C, C29G G39U is higher in self-cleavage: 0.317 for the first, 0.334 for the second.

Compared with C29G G45A, C29G G45C is higher in self-cleavage: 0.359 for the first, 0.371 for the second.

Compared with C29G G45U, C29G U32A is higher in self-cleavage: 0.458 for the first, 0.847 for the second.

First: C29G U32C
Second: C29G U32G
The self-cleavage of the first is higher: 0.708 for the first, 0.553 for the second.

Going from C29U to C29U A34C, the self-cleavage falls from 0.947 to 0.723.

First: C29U A34G
Second: C29U A34U
The self-cleavage of the first is higher: 0.657 for the first, 0.603 for the second.

First: C29U A37C
Second: C29U A37G
The self-cleavage of the first is higher: 0.93 for the first, 0.751 for the second.

Going from C29U A37U to C29U A40C, the self-cleavage rises from 0.371 to 0.51.

Going from C29U A40G to C29U A40U, the self-cleavage falls from 0.389 to 0.28.

Going from C29U A41C to C29U A41G, the self-cleavage falls from 0.319 to 0.275.

With C29U A41U the self-cleavage was 0.337.
